Article PMC6446905 (Science (New York, N.Y.), 2018)

T1: TAF2 (human (endogenous in HeLa), UniProt Q6P1X5 1-1199)
T1 sequence (looked up): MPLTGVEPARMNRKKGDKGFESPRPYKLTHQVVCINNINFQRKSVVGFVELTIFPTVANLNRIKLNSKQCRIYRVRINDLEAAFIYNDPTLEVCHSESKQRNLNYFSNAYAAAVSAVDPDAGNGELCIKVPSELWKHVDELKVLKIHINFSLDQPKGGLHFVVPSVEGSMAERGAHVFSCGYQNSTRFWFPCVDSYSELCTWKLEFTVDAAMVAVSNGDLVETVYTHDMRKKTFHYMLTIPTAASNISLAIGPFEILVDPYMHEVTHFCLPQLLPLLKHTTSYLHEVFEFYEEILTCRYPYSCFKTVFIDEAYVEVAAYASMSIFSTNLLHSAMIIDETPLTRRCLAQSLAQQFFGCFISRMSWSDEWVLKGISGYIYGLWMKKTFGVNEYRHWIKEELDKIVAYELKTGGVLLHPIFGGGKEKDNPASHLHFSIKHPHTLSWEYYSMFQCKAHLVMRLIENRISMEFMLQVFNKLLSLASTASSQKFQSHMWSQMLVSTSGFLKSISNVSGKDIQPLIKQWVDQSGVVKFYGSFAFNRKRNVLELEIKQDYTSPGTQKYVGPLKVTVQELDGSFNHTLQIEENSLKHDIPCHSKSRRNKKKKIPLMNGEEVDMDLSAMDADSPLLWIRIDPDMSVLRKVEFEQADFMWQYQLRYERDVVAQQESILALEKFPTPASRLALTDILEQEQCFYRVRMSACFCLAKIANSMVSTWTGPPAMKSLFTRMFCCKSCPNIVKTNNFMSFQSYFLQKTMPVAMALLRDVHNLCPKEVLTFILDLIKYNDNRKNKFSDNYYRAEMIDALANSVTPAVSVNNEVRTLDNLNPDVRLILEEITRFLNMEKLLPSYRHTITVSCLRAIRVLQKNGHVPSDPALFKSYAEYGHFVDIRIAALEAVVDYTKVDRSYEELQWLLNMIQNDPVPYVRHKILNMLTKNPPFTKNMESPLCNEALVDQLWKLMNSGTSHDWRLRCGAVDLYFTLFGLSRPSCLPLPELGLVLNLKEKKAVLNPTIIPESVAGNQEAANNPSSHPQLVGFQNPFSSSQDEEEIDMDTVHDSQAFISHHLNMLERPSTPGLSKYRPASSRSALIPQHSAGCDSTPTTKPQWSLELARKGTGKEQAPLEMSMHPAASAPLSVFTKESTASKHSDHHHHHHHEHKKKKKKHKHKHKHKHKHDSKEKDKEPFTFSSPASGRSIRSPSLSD

T2: TAF4 (human (endogenous in HeLa), UniProt O00268 1-1085)
T2 sequence (looked up): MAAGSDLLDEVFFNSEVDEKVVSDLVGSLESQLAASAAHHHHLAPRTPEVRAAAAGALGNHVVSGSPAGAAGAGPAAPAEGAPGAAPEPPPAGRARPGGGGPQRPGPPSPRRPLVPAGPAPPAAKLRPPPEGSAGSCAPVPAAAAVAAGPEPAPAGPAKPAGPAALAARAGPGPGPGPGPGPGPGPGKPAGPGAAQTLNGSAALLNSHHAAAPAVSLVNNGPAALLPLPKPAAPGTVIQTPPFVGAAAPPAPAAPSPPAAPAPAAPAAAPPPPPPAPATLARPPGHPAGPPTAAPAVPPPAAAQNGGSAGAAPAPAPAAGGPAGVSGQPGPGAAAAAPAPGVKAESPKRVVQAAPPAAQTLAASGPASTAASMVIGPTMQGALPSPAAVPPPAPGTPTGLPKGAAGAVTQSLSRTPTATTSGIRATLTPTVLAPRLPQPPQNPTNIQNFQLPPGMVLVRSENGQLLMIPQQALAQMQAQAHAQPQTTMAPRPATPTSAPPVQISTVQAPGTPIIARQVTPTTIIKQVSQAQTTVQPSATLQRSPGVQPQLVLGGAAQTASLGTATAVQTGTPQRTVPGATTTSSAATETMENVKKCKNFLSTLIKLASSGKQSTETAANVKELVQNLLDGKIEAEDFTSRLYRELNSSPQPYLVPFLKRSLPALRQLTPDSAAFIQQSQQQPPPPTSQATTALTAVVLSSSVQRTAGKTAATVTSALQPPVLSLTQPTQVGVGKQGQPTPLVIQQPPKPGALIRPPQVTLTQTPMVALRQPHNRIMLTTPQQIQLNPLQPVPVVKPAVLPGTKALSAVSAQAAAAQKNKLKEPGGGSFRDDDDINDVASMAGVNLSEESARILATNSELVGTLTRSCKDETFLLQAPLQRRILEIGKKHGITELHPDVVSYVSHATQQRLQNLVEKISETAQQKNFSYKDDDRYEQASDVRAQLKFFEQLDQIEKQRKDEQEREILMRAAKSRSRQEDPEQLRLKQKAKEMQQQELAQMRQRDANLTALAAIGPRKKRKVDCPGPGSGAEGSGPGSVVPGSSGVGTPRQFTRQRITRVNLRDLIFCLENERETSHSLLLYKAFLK

B1: TAF6 (natural protein)
chain: not shown
B2: TAF8 (natural protein, human (endogenous in HeLa), UniProt Q7Z7C8 1-310, looked up)
chain: MADAAATAGAGGSGTRSGSKQSTNPADNYHLARRRTLQVVVSSLLTEAGFESAEKASVETLTEMLQSYISEIGRSAKSYCEHTARTQPTLSDIVVTLVEMGFNVDTLPAYAKRSQRMVITAPPVTNQPVTPKALTAGQNRPHPPHIPSHFPEFPDPHTYIKTPTYREPVSDYQVLREKAASQRRDVERALTRFMAKTGETQSLFKDDVSTFPLIAARPFTIPYLTALLPSELEMQQMEETDSSEQDEQTDTENLALHISMEDSGAEKENTSVLQQNPSLSGSRNGEENIIDNPYLRPVKKPKIRRKKSLS
B3: TAF9 (natural protein, human (endogenous in HeLa), UniProt Q16594 1-264, looked up)
chain: MESGKTASPKSMPKDAQMMAQILKDMGITEYEPRVINQMLEFAFRYVTTILDDAKIYSSHAKKATVDADDVRLAIQCRADQSFTSPPPRDFLLDIARQRNQTPLPLIKPYSGPRLPPDRYCLTAPNYRLKSLQKKASTSAGRITVPRLSVGSVTSRPSTPTLGTPTPQTMSVSTKVGTPMSLTGQRFTVQMPTSQSPAVKASIPATSAVQNVLINPSLIGSKNILITTNMMSSQNTANESSNALKRKREDDDDDDDDDDDYDNL
B4: TAF5 (natural protein, human (endogenous in HeLa), UniProt Q15542 1-800, looked up)
chain: MAALAEEQTEVAVKLEPEGPPTLLPPQAGDGAGEGSGGTTNNGPNGGGGNVAASSSTGGDGGTPKPTVAVSAAAPAGAAPVPAAAPDAGAPHDRQTLLAVLQFLRQSKLREAEEALRREAGLLEEAVAGSGAPGEVDSAGAEVTSALLSRVTASAPGPAAPDPPGTGASGATVVSGSASGPAAPGKVGSVAVEDQPDVSAVLSAYNQQGDPTMYEEYYSGLKHFIECSLDCHRAELSQLFYPLFVHMYLELVYNQHENEAKSFFEKFHGDQECYYQDDLRVLSSLTKKEHMKGNETMLDFRTSKFVLRISRDSYQLLKRHLQEKQNNQIWNIVQEHLYIDIFDGMPRSKQQIDAMVGSLAGEAKREANKSKVFFGLLKEPEIEVPLDDEDEEGENEEGKPKKKKPKKDSIGSKSKKQDPNAPPQNRIPLPELKDSDKLDKIMNMKETTKRVRLGPDCLPSICFYTFLNAYQGLTAVDVTDDSSLIAGGFADSTVRVWSVTPKKLRSVKQASDLSLIDKESDDVLERIMDEKTASELKILYGHSGPVYGASFSPDRNYLLSSSEDGTVRLWSLQTFTCLVGYKGHNYPVWDTQFSPYGYYFVSGGHDRVARLWATDHYQPLRIFAGHLADVNCTRFHPNSNYVATGSADRTVRLWDVLNGNCVRIFTGHKGPIHSLTFSPNGRFLATGATDGRVLLWDIGHGLMVGELKGHTDTVCSLRFSRDGEILASGSMDNTVRLWDAIKAFEDLETDDFTTATGHINLPENSQELLLGTYMTKSTPVVHLHFTRRNLVLAAGAYSPQ
B5: TAF12 (natural protein, human (endogenous in HeLa), UniProt Q16514 1-161, looked up)
chain: MNQFGPSALINLSNFSSIKPEPASTPPQGSMANSTAVVKIPGTPGAGGRLSPENNQVLTKKKLQDLVREVDPNEQLDEDVEEMLLQIADDFIESVVTAACQLARHRKSSTLEVKDVQLHLERQWNMWIPGFGSEEIRPYKKACTTEAHKQRMALIRKTTKK

Tests used:
Assay in all cases: cryo-EM structure
cryo-EM structure = biological target: the molecule itself
TAF5 = biological target: B4
TAF6 = biological target: B1
Chain of TAF6 (P49848 whole entry): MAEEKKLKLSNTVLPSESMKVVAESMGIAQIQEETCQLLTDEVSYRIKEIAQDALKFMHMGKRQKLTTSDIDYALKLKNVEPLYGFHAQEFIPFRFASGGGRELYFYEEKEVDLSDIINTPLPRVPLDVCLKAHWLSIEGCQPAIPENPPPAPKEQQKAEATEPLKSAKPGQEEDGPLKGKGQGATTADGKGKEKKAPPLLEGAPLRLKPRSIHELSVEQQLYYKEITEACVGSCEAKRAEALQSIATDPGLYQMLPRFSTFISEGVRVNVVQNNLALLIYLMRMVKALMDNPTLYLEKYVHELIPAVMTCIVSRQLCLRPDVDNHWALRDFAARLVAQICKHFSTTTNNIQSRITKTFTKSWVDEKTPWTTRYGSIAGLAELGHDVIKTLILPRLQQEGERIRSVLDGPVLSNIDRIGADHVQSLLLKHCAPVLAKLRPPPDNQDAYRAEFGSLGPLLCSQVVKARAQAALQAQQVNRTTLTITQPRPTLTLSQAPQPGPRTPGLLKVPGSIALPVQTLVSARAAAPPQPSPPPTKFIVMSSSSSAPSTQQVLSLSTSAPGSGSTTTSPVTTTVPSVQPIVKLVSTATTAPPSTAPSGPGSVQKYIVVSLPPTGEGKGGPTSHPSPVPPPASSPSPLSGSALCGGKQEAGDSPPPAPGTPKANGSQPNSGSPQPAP

TAF2 = biological target: T1, TAF2
TAF4 = biological target: T2, TAF4

binding result (TAF5) | binding result (TAF6) | binding result (TAF4) | Binder | other results
 |  |  | B1 | stoichiometry N (cryo-EM structure): 2
binds | binds |  | B2 | binding result (TAF2): binds
binds | binds |  | B3 | 
 |  | binds | B4 | 
 |  | binds | B5 | 
